The data set deals with the molecule itself. The experiment in a line: SEC; Superose 6 Increase 10/300 GL; single ENC particles eluted at 11-12 mL, highly aggregated particles at 8-9 mL. Background: Size exclusion chromatography separates by hydrodynamic size, large species first.

B1: encapsulin (ENC) from Thermotoga maritima (natural protein, UniProt Q9WZP2 1-264, looked up)
chain: MEFLKRSFAPLTEKQWQEIDNRAREIFKTQLYGRKFVDVEGPYGWEYAAHPLGEVEVLSDENEVVKWGLRKSLPLIELRATFTLDLWELDNLERGKPNVDLSSLEETVRKVAEFEDEVIFRGCEKSGVKGLLSFEERKIECGSTPKDLLEAIVRALSIFSKDGIEGPYTLVINTDRWINFLKEEAGHYPLEKRVEECLRGGKIITTPRIEDALVVSERGGDFKLILGQDLSIGYEDREKDAVRLFITETFTFQVVNPEALILLK
notes: also called ENC NPs; ENC PNPs; copies: 60
In the case of B1, the binding result is “binds”.
